Assay results taken from IntAct's records for PubMed 10521435.

B1: Chaperone protein DnaJ (Escherichia coli (strain K12)), P08622 (parent)
chain: MAKQDYYEILGVSKTAEEREIRKAYKRLAMKYHPDRNQGDKEAEAKFKEIKEAYEVLTDSQKRAAYDQYGHAAFEQGGMGGGGFGGGADFSDIFGDVFGDIFGGGRGRQRAARGADLRYNMELTLEEAVRGVTKEIRIPTLEECDVCHGSGAKPGTQPQTCPTCHGSGQVQMRQGFFAVQQTCPHCQGRGTLIKDPCNKCHGHGRVERSKTLSVKIPAGVDTGDRIRLAGEGEAGEHGAPAGDLYVQVQVKQHPIFEREGNNLYCEVPINFAMAALGGEIEVPTLDGRVKLKVPGETQTGKLFRMRGKGVKSVRGGAQGDLLCRVVVETPVGLNERQKQLLQELQESFGGPTGEHNSPRSKSFFDGVKKFFDDLTR

Variants of: B1
Settings: with dnak_ecoli dnaK

Variant | effect of a mutation on the interaction
R63A | decreasing interaction
K62A;R63A | decreasing interaction
K62A | decreasing interaction
